Results taken from paper PMC3745449.

Tests used:
[1] = target: His6-tagged N-terminal domain of turkey pancreatic lipase (turkey)
[2] = target: His6-tagged N-terminal domain of turkey pancreatic lipase (turkey); remark: listed apart in the source

increase of N-TPL lipase activity on tributyrin (TC4) when colipase is present in the hydrolysis medium [1]: 15%
time for which N-TPL stays active in tributyrin (TC4) hydrolysis (pH-Stat, pH 8.5, 37°C) with colipase; without colipase the activity is lost after 3 min [2]: > 8 min
Substance: Turkey colipase (natural protein)
